Results on eight molecules are retold here after patent publication WO2013005649A1 (dated 2013).

Residue numbers refer to the chain shown, from its start. Non-standard residues stand in square brackets, D forms with d. No end group written: not given here. sY = N[C@@H](Cc1ccc(OS(=O)(=O)O)cc1)C(=O)O

The labels stand for the following.
T1: synthetic peptide CCR6-1 (1st to 17th amino acids of human CCR6) (human, also: 11 PEG units at the C-terminal side)
T1 construct: also called CCR6-1 peptide
T1 peptide: MSGESMNFSDVFDSSEDC

T2: synthetic peptide CCR6-2S (9th to 23rd amino acids of human CCR6, Tyr18-sulfation) (human)
T2 construct: also called CCR6-2S peptide; P2: CCR6-2S(B)
T2 peptide: CSDVFDSSED[sY]FVSVN

T3: synthetic peptide CCR6-2 (9th to 23rd amino acids of human CCR6) (human, not fully specified)
T3 construct: Not sulfated; also called CCR6-2 peptide; P3: CCR6-2(B)
T3 peptide: CSDVFDSSEDYFVSVN

T4: synthetic peptide CCR6-3 (20th to 34th amino acids of human CCR6) (human, Cys residue introduced at the N-terminal or C-terminal side)
T4 construct: also called CCR6-3 peptide
T4 peptide: CVSVNTSYYSVDSEML

T5: synthetic peptide CCR6-4 (30th to 46th amino acids of human CCR6) (human, also: 11 PEG units at the N-terminal side)
T5 construct: also called CCR6-4 peptide
T5 peptide: DSEMLLSSLQEVRQFSRC

T6: human CCR6 with C-terminal His tag, on CHO-hCCR6 (isoform1) or U937-CCR6 cells (human, UniProt P51684 1-374)
T6 construct: Expressed from pKANTEX-hCCR6 (isoform1) in CHO/DG44 cells (CHO-hCCR6) and in U937 cells (U937-CCR6); also called hCCR6-His-tag
T6 sequence: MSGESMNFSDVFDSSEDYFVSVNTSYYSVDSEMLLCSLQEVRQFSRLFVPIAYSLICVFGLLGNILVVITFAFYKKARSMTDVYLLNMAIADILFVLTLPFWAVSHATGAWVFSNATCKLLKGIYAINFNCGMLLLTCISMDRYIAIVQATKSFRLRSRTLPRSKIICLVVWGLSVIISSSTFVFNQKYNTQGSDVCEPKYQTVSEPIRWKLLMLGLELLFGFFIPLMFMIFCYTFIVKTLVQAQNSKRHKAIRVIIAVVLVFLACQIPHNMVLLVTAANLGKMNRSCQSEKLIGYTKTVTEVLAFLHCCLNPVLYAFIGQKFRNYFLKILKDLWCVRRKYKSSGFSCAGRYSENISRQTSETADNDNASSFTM

T7: cynomolgus monkey CCR6 (isoform 1, 177Val type) with C-terminal His tag, on CHO-cynomolgus CCR6 cells (cynomolgus monkey, UniProt P51684 1-374 (human entry))
T7 construct: also called mfCCR6
T7 chain: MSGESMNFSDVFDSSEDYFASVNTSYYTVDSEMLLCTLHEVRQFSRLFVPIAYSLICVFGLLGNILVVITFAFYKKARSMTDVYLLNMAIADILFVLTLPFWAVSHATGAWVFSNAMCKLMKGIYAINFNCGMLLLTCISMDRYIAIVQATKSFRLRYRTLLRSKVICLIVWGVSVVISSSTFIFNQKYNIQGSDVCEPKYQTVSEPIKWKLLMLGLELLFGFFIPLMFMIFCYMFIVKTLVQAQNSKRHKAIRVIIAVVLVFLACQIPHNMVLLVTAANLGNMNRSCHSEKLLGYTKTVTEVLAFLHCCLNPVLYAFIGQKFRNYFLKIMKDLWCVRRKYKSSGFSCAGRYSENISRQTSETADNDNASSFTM

B1: anti-human CCR6 chimeric antibody KM4705 chimera (antibody, human IgG1, V domains shown)
VH: EVQLVETGGGLVQPKGSLKLSCAASGFSFKTNAMNWVRQAPGKGLEWVARIRSKINNYATYYADSVKDRFTISRDDSQSMLYLQMNNLKTEDTAMYYCVSDHYGYGAVDYWGQGTSVTVSS
VL: DIQMNQSPSSLSASLGDTITITCRASQNINIWLSWYQQKPGSIPKLLIYKASNLHTGVSSRFSGSGYGTDFTLTISSLQPEDIATYYCLQGRSYPLTFGGGTNLEIK
B2: anti-human CCR6 chimeric antibody KM4703 chimera (antibody, human IgG1, V domains shown)
VH: QVQMKETGPGLVQPTQTLSLTCTVSGFSLTSSRVHWVRQPPGKGLEWMGVIYYDGKTDYNATLKSRLSISRDTSKSQVFLKINSLQTDDTAMYYCAGGVIMDAWGQGASVTVSP
VL: DVLMTQIPVSLPVSLGGQVAISCRSSQSLVHTDGNTYLHWYLQKPGQSPQLLIYRVSNRFSGVPDRFSGSGSGTDFTLKISRVEPEDLGVYYCSQRTYFPLTFGSGTKLEIK
B3: anti-human CCR6 rat monoclonal antibody KM4703 (antibody, rat IgG2b, V domains shown)
VH: B2 VH
VL: B2 VL
B4: anti-human CCR6 chimeric antibody KM4704 chimera (antibody, human IgG1, V domains shown)
VH: EVQLQESGPGLVKPSQSLSLTCSVTGYSITSNYWGWIRKFPGNKMEWMGYTSSSGSTSYNPYLKSRISITRDTSKNQFFLKLNSVTTEDTATYYCTGGYVMDAWGQGASVTVSS
VL: B2 VL with I7T, A20S, T32S, S94L, F99V, L101W, S105G, E110D, I111L
B5: anti-human CCR6 rat monoclonal antibody KM4704 (antibody, rat IgG2b, V domains shown)
VH: B4 VH
VL: B2 VL with I7T, A20S, T32S, S94L, F99V, L101W, S105G, E110D, I111L
B6: anti-human CCR6 chimeric antibody KM4592 chimera (antibody, human IgG1, V domains shown)
VH: DVQLVESGGGLVQPGGSRKLSCAASGFTFSSFGMHWVRQAPEKGLEWVAYISTGSGSIYYADTVKGRFTISRDNPKNTLFLQMTSLRSEDTAIYYCLKGGDGYYVAAWFAYWGQGTLVTVSA
VL: DIVLTQAAPSVSVTPGESVSISCRSSKSLLHTNDNTYLYWFLQRPGQSPQLLIYRMSNLASGVPDRFSGSGSGTAFTLRISRVEAEDVGVYYCMQHLEYPLTFGAGTKLELK
B7: anti-human CCR6 mouse monoclonal antibody KM4592 (antibody, V domains shown)
VH: B6 VH
VL: B6 VL
B8: anti-human CCR6 mouse monoclonal antibody KM4705 (antibody, mouse IgG2b, V domains shown)
VH: B1 VH
VL: B1 VL

The target of one assay is T1, synthetic peptide CCR6-1 (1st to 17th …). The experiment in a line: binding ELISA on coated peptide.
On to B1, for which the binding result is given as “binds”.

As to B2, the binding result is listed as “no binding”.

B3: the binding result is “no binding (tested: 10 μg/mL)”.

As to B4, the binding result is reported as “no binding”.

Consider B5, for which the binding result was “no binding (tested: 10 μg/mL)”.

With B6, the binding result is recorded as “no binding”.

In the case of B7, the binding result is “no binding (tested: 10 μg/mL)”.

A further assay concerns the target T2, synthetic peptide CCR6-2S (9th to 23rd …). The experiment in a line: binding ELISA on coated peptide.
As to B1, the binding result is “binds”.

The next assay concerns the target T3, synthetic peptide CCR6-2 (9th to 23rd …). The experiment in a line: binding ELISA on coated peptide.
With B1, the binding result was “binds”.

A further assay deals with T4, synthetic peptide CCR6-3 (20th to 34th …). The assay can be described thus: binding ELISA on coated peptide.
B8: the binding result is on record as “no binding (tested: 10 μg/mL)”.

For the molecule B3, the binding result is reported as “no binding (tested: 10 μg/mL)”.

Regarding B5, the binding result is “no binding (tested: 10 μg/mL)”.

As for B7, the binding result is “no binding (tested: 10 μg/mL)”.

The target of a further assay is T5, synthetic peptide CCR6-4 (30th to 46th …). The experiment in a line: binding ELISA on coated peptide.
B8: the binding result is “no binding (tested: 10 μg/mL)”.

For B3, the binding result is reported as “no binding (tested: 10 μg/mL)”.

For B5, the binding result is recorded as “no binding (tested: 10 μg/mL)”.

In the case of B7, the binding result is on record as “no binding (tested: 10 μg/mL)”.

Another assay addresses T6, human CCR6 with C-terminal His tag, on …. The experiment in a line: flow cytometry on CHO-hCCR6 cells.
B1: the binding result was “binds”.

Turning to B2, the binding result is recorded as “binds”.

As to B4, the binding result was “binds”.

Regarding B6, the binding result is on record as “binds”.

The next assay concerns the target T7, cynomolgus monkey CCR6 (isoform 1, …). The experiment in a line: flow cytometry on CHO-cynomolgus CCR6 cells.
In the case of B1, the binding result is “binds”.

In the case of B2, the binding result is given as “binds”.

Take B4: the binding result was “binds”.

Consider B6, for which the binding result was “binds”.

The next assay deals with T1, synthetic peptide CCR6-1 (1st to 17th …). The assay can be described thus: binding ELISA on coated peptide, 10 μg/mL antibody.
With B8, the binding result is listed as “binds”.

The next assay deals with T2, synthetic peptide CCR6-2S (9th to 23rd …). The assay can be described thus: binding ELISA on coated peptide, 10 μg/mL antibody.
B8: the binding result is on record as “binds”.

Another assay addresses T3, synthetic peptide CCR6-2 (9th to 23rd …). The assay can be described thus: binding ELISA on coated peptide, 10 μg/mL antibody.
For B8, the binding result is given as “binds”.

In the next assay the target is T6, human CCR6 with C-terminal His tag, on …. The assay can be described thus: flow cytometry on CHO-hCCR6 cells, 0.0001 to 10 μg/mL antibody.
Take B8: the binding result is on record as “binds”.

As for B3, the binding result is on record as “binds”.

Take B5: the binding result is reported as “binds”.

For B7, the binding result is recorded as “binds”.

A further assay has as its target T7, cynomolgus monkey CCR6 (isoform 1, …). The experiment in a line: flow cytometry on CHO-cynomolgus CCR6 cells, 0.0001 to 10 μg/mL antibody.
Regarding B8, the binding result is reported as “binds”.

B3: the binding result is “binds”.

For the molecule B5, the binding result is on record as “binds”.

B7: the binding result is “binds”.

The next assay deals with T8, human CCR6 N-terminal extracellular domain Fc fusion protein NthCCR6-IgG4Fc (human, contains a sulfated Tyr residue; N-linked sugar chains).
T8 construct: Made in CHO/DG44 cells; also called NthCCR6-Fc; NtCCR6-IgG4Fc
T8 sequence (chain, as listed by the source limits assumed): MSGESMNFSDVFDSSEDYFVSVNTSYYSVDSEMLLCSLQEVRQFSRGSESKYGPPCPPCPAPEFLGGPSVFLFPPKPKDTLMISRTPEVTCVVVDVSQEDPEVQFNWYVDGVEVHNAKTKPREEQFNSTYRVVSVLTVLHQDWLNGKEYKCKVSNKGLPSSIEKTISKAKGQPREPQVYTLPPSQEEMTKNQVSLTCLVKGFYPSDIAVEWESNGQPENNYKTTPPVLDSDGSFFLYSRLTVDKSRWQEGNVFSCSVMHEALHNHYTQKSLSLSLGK
The experiment in a line: SPR, Biacore T100; NthCCR6-IgG4Fc captured on anti-human IgG CM5 chip, antibody injected.
As to B8, the affinity, expressed as Kd, was 6.52 nM.

B3 came in with a dissociation constant Kd of 1.15 nM.

For the molecule B5, binding was characterised by a dissociation constant (Kd) of 0.67 nM.

B7 displayed a Kd of 0.38 nM.
